T1: TNFR1 (Homo sapiens, UniProt P19438)
T1 chain: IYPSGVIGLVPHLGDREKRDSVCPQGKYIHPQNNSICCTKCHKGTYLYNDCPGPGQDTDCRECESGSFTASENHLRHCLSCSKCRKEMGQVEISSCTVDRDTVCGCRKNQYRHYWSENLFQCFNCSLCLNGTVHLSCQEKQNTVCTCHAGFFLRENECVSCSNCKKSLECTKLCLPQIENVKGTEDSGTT


Target: T1, TNFR1
Assay: yeast display SC50

Binder	apparent Kd (screen) [nM]
R14T (designed binder) MTLQELLREEALRTAEAEAFRYALELLAEKFPEQKEYLLDLAEEIESQIRSLSGVDVEDVRKFLDKEWAWVKELLAEHPAELAEVEAARAARLAELRAEVEAKVAA	0.49
R50T (designed binder) MTLQELLREEALRRAEAEAFRYALELLAEKFPEQKEYLLDLAEEIESQITSLSGVDVEDVRKFLDKEWAWVKELLAEHPAELAEVEAARAARLAELRAEVEAKVAA	0.49
H78V (designed binder) MTLQELLREEALRRAEAEAFRYALELLAEKFPEQKEYLLDLAEEIESQIRSLSGVDVEDVRKFLDKEWAWVKELLAEVPAELAEVEAARAARLAELRAEVEAKVAA	0.869
R92W (designed binder) MTLQELLREEALRRAEAEAFRYALELLAEKFPEQKEYLLDLAEEIESQIRSLSGVDVEDVRKFLDKEWAWVKELLAEHPAELAEVEAARAAWLAELRAEVEAKVAA	0.539
R89W (designed binder) MTLQELLREEALRRAEAEAFRYALELLAEKFPEQKEYLLDLAEEIESQIRSLSGVDVEDVRKFLDKEWAWVKELLAEHPAELAEVEAAWAARLAELRAEVEAKVAA	0.956
E29D (designed binder) MTLQELLREEALRRAEAEAFRYALELLADKFPEQKEYLLDLAEEIESQIRSLSGVDVEDVRKFLDKEWAWVKELLAEHPAELAEVEAARAARLAELRAEVEAKVAA	0.49
R97W (designed binder) MTLQELLREEALRRAEAEAFRYALELLAEKFPEQKEYLLDLAEEIESQIRSLSGVDVEDVRKFLDKEWAWVKELLAEHPAELAEVEAARAARLAELWAEVEAKVAA	0.49
A102S (designed binder) MTLQELLREEALRRAEAEAFRYALELLAEKFPEQKEYLLDLAEEIESQIRSLSGVDVEDVRKFLDKEWAWVKELLAEHPAELAEVEAARAARLAELRAEVESKVAA	0.79
A94H (designed binder) MTLQELLREEALRRAEAEAFRYALELLAEKFPEQKEYLLDLAEEIESQIRSLSGVDVEDVRKFLDKEWAWVKELLAEHPAELAEVEAARAARLHELRAEVEAKVAA	0.446
L27S (designed binder) MTLQELLREEALRRAEAEAFRYALELSAEKFPEQKEYLLDLAEEIESQIRSLSGVDVEDVRKFLDKEWAWVKELLAEHPAELAEVEAARAARLAELRAEVEAKVAA	0.593
L93F (designed binder) MTLQELLREEALRRAEAEAFRYALELLAEKFPEQKEYLLDLAEEIESQIRSLSGVDVEDVRKFLDKEWAWVKELLAEHPAELAEVEAARAARFAELRAEVEAKVAA	0.539
L75P (designed binder) MTLQELLREEALRRAEAEAFRYALELLAEKFPEQKEYLLDLAEEIESQIRSLSGVDVEDVRKFLDKEWAWVKELPAEHPAELAEVEAARAARLAELRAEVEAKVAA	2.48
A23V (designed binder) MTLQELLREEALRRAEAEAFRYVLELLAEKFPEQKEYLLDLAEEIESQIRSLSGVDVEDVRKFLDKEWAWVKELLAEHPAELAEVEAARAARLAELRAEVEAKVAA	0.653
E77D (designed binder) MTLQELLREEALRRAEAEAFRYALELLAEKFPEQKEYLLDLAEEIESQIRSLSGVDVEDVRKFLDKEWAWVKELLADHPAELAEVEAARAARLAELRAEVEAKVAA	0.653
L3V (designed binder) MTVQELLREEALRRAEAEAFRYALELLAEKFPEQKEYLLDLAEEIESQIRSLSGVDVEDVRKFLDKEWAWVKELLAEHPAELAEVEAARAARLAELRAEVEAKVAA	0.593
L7N (designed binder) MTLQELNREEALRRAEAEAFRYALELLAEKFPEQKEYLLDLAEEIESQIRSLSGVDVEDVRKFLDKEWAWVKELLAEHPAELAEVEAARAARLAELRAEVEAKVAA	24.4
A105F (designed binder) MTLQELLREEALRRAEAEAFRYALELLAEKFPEQKEYLLDLAEEIESQIRSLSGVDVEDVRKFLDKEWAWVKELLAEHPAELAEVEAARAARLAELRAEVEAKVFA	0.869
E29I (designed binder) MTLQELLREEALRRAEAEAFRYALELLAIKFPEQKEYLLDLAEEIESQIRSLSGVDVEDVRKFLDKEWAWVKELLAEHPAELAEVEAARAARLAELRAEVEAKVAA	1.16

Binder	apparent Kd (screen) [nM]
Y22H (designed binder) MTLQELLREEALRRAEAEAFRHALELLAEKFPEQKEYLLDLAEEIESQIRSLSGVDVEDVRKFLDKEWAWVKELLAEHPAELAEVEAARAARLAELRAEVEAKVAA	0.49
A88M (designed binder) MTLQELLREEALRRAEAEAFRYALELLAEKFPEQKEYLLDLAEEIESQIRSLSGVDVEDVRKFLDKEWAWVKELLAEHPAELAEVEAMRAARLAELRAEVEAKVAA	0.718
A80L (designed binder) MTLQELLREEALRRAEAEAFRYALELLAEKFPEQKEYLLDLAEEIESQIRSLSGVDVEDVRKFLDKEWAWVKELLAEHPLELAEVEAARAARLAELRAEVEAKVAA	0.446
I45S (designed binder) MTLQELLREEALRRAEAEAFRYALELLAEKFPEQKEYLLDLAEESESQIRSLSGVDVEDVRKFLDKEWAWVKELLAEHPAELAEVEAARAARLAELRAEVEAKVAA	7.78
K66W (designed binder) MTLQELLREEALRRAEAEAFRYALELLAEKFPEQKEYLLDLAEEIESQIRSLSGVDVEDVRKFLDWEWAWVKELLAEHPAELAEVEAARAARLAELRAEVEAKVAA	0.539
A94E (designed binder) MTLQELLREEALRRAEAEAFRYALELLAEKFPEQKEYLLDLAEEIESQIRSLSGVDVEDVRKFLDKEWAWVKELLAEHPAELAEVEAARAARLEELRAEVEAKVAA	0.539
H78R (designed binder) MTLQELLREEALRRAEAEAFRYALELLAEKFPEQKEYLLDLAEEIESQIRSLSGVDVEDVRKFLDKEWAWVKELLAERPAELAEVEAARAARLAELRAEVEAKVAA	0.49
L82E (designed binder) MTLQELLREEALRRAEAEAFRYALELLAEKFPEQKEYLLDLAEEIESQIRSLSGVDVEDVRKFLDKEWAWVKELLAEHPAEEAEVEAARAARLAELRAEVEAKVAA	2.73
R21Q (designed binder) MTLQELLREEALRRAEAEAFQYALELLAEKFPEQKEYLLDLAEEIESQIRSLSGVDVEDVRKFLDKEWAWVKELLAEHPAELAEVEAARAARLAELRAEVEAKVAA	0.539
A23D (designed binder) MTLQELLREEALRRAEAEAFRYDLELLAEKFPEQKEYLLDLAEEIESQIRSLSGVDVEDVRKFLDKEWAWVKELLAEHPAELAEVEAARAARLAELRAEVEAKVAA	2.25
R97T (designed binder) MTLQELLREEALRRAEAEAFRYALELLAEKFPEQKEYLLDLAEEIESQIRSLSGVDVEDVRKFLDKEWAWVKELLAEHPAELAEVEAARAARLAELTAEVEAKVAA	0.539
V85N (designed binder) MTLQELLREEALRRAEAEAFRYALELLAEKFPEQKEYLLDLAEEIESQIRSLSGVDVEDVRKFLDKEWAWVKELLAEHPAELAENEAARAARLAELRAEVEAKVAA	0.653
F63N (designed binder) MTLQELLREEALRRAEAEAFRYALELLAEKFPEQKEYLLDLAEEIESQIRSLSGVDVEDVRKNLDKEWAWVKELLAEHPAELAEVEAARAARLAELRAEVEAKVAA	2.05
A17K (designed binder) MTLQELLREEALRRAEKEAFRYALELLAEKFPEQKEYLLDLAEEIESQIRSLSGVDVEDVRKFLDKEWAWVKELLAEHPAELAEVEAARAARLAELRAEVEAKVAA	1.16
A28L (designed binder) MTLQELLREEALRRAEAEAFRYALELLLEKFPEQKEYLLDLAEEIESQIRSLSGVDVEDVRKFLDKEWAWVKELLAEHPAELAEVEAARAARLAELRAEVEAKVAA	20.2
A76Y (designed binder) MTLQELLREEALRRAEAEAFRYALELLAEKFPEQKEYLLDLAEEIESQIRSLSGVDVEDVRKFLDKEWAWVKELLYEHPAELAEVEAARAARLAELRAEVEAKVAA	0.539
E9M (designed binder) MTLQELLRMEALRRAEAEAFRYALELLAEKFPEQKEYLLDLAEEIESQIRSLSGVDVEDVRKFLDKEWAWVKELLAEHPAELAEVEAARAARLAELRAEVEAKVAA	0.653

Source: article PMC12416549 (2024)
